In PMC9935396, “Structures of transcription preinitiation complex engaged with the +1 nucleosome” (Nature Structural & Molecular Biology, 2022):

Biological target: T1, Tfb2 (p52), subunit of TFIIH (S. cerevisiae, UniProt Q02939 1-513)
T1 construct: Tfb2 (p52 in human), subunit of S. cerevisiae TFIIH; Stood in the assay as a subunit of TFIIH
T1 sequence: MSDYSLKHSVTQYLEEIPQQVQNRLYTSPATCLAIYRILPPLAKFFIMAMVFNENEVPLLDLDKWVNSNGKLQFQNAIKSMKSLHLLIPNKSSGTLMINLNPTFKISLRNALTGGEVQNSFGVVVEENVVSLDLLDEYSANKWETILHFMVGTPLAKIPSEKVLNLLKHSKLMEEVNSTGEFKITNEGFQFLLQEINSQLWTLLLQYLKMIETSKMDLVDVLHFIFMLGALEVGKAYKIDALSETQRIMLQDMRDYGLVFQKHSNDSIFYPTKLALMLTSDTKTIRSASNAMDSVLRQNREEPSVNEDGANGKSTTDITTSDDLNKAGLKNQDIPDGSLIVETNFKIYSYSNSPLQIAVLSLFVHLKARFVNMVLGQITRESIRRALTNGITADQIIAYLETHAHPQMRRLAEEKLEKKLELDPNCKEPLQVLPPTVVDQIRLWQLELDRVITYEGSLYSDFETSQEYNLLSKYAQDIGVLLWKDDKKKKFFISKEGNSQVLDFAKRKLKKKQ
Assay: cryo-EM structure; PIC-nucleosome complex A, without NTPs; PIC assembled in vitro on nucleosomal 209 bp His4 promoter/Widom-601 scaffold, GraFix (15-40% sucrose, 0-0.1% glutaraldehyde); overall 3.3 Å
Settings: both partners purified

B1: Tfb5, subunit of TFIIH (natural protein, S. cerevisiae)
chain: MARARKGALVQCDPSIKALILQIDAKMSDIVLEELDDTHLLVNPSKVEFVKHELNRLLSKNIYNPMDEEENQ
notes: Tfb5, subunit of S. cerevisiae TFIIH; Stood in the assay as a subunit of TFIIH
Question: Does B1 bind?
Answer: binds
